Assay results: paper PMC7949091

Target: HA-tagged extracellular domain of EspIgR (E. sinensis polymeric immunoglobulin receptor) (E. sinensis)

percentage of hemocyte phagocytosis of FITC-labeled S. aureus coated with rEsVg-DUF1943, in vitro, flow cytometry (controls ∼11.39%; with siEspIgR ∼5.57%): 22.1%
Substance: Flag-tagged EsVg-DUF1943 domain (domain or fragment)
percentage of hemocyte phagocytosis of FITC-labeled V. parahaemolyticus coated with rEsVg-DUF1943, in vitro, flow cytometry (with siEspIgR ∼6.10%): 21.5%
